The text below walks through data of publication PMC12980445.

For this data set, the system named is MRA_0776 (Mycobacterium tuberculosis H37Ra). Kind of data set: BLI. The settings on record: […] (pH not stated); BLI: PBST, 0.02% Tween-20, 30 C.

One may read the Kd as the equilibrium constant for the complex coming apart. A high value points to weaker binding. For the substance dosR promoter (SN441-BIO), the equilibrium dissociation constant (Kd) stood at 2.88 µM.
